For the data set, the system named is progesterone. Nature of the data set: In vivo activity of bovine P45017α in whole cells of transformed Kluyveromyces lactis (3H-labelled steroid, RP-HPLC). In kind it is cell-based. The settings on record: expressed in K. lactis under the lactase promoter. How it is done:
Transformation of K. lactis strain CBS 2360 was performed with pGB 17α-5 as described in Example 14 and in vivo activity was determined in the whole cells of the transformed K. lactis strain. Four independent transformants (17α-3,17α-7,17α-10 and 17α-11) were grown in rich medium (10 g of yeast extracts, 10 g of bactopeptone and 20 g of glucose/liter) for 72 hours to reach an A600 of at least 30. The cells were harvested and resuspended at 1×10^6 cells/ml (A600 =1).
Five ml of culture were incubated in the presence of ^3H-labelled progesterone (20 μM) for 24 hours at 28° C. and then were extracted with dichloromethane. […] The amount of 17α-hydroxyprogesterone was about 40% (about 23% to 58% depending on the transformant) of the substract added (see FIG. 57 corresponding to 17α-3). No androstenedione, which was the product of the C17-20-lyase activity of P45017α, was detected.
^3H-labelled 17α-hydroxyprogesterone was also incubated with the transformants under the conditions described above and after 24 hours of incubation, no androstenedione was detected.

B1: bovine P45017α: bovine cytochrome P450 steroid 17α-hydroxylase expressed in K. lactis under the lactase promoter (protein, UniProt P05185 1-509, looked up)
Steroid …: MWLLLAVFLLTLAYLFWPKTKHSGAKYPRSLPSLPLVGSLPFLPRRGQQHKNFFKLQEKYGPIYSFRLGSKTTVMIGHHQLAREVLLKKGKEFSGRPKVATLDILSDNQKGIAFADHGAHWQLHRKLALNAFALFKDGNLKLEKIINQEANVLCDFLATQHGEAIDLSEPLSLAVTNIISFICFNFSFKNEDPALKAIQNVNDGILEVLSKEVLLDIFPVLKIFPSKAMEKMKGCVQTRNELLNEILEKCQENFSSDSITNLLHILIQAKVNADNNNAGPDQDSKLLSNRHMLATIGDIFGAGVETTTSVIKWIVAYLLHHPSLKKRIQDDIDQIIGFNRTPTISDRNRLVLLEATIREVLRIRPVAPTLIPHKAVIDSSIGDLTIDKGTDVVVNLWALHHSEKEWQHPDLFMPERFLDPTGTQLISPSLSYLPFGAGPRSCVGEMLARQELFLFMSRLLQRFNLEIPDDGKLPSLEGHASLVLQIKPFKVKIEVRQAWKEAQAEGSTP
For the molecule B1, the C17-20 lyase activity entry was “does not show any activity C17-20 lyase”.
